Data from paper PMC9783675.

Biological target: recombinant Nodulin 22 (PvNod22) with a 6xHis-tag at the N-terminus, lacking the ER-signal peptide (Phaseolus vulgaris L.)
Experiment: ITC; dilution experiment: PvNod22 injected (10 x 2 µL) into buffer, PBS pH 7.5, 25 °C; agglomerates to smaller oligomers; apparent
Set-up: dH (of dissociation): unit not given here

## recombinant Nodulin 22 (PvNod22) with a 6xHis-tag at the N-terminus, lacking the ER-signal peptide (natural protein)
  Kd: 9.13 µM
  dH (of dissociation): -49600
